{"source": "patent US20240293585A1", "about": "“HIGH MOLECULAR WEIGHT ZWITTERION-CONTAINING POLYMERS” (Kodiak Sciences Inc., priority 0001, published 2024)", "origin": "cited, not measured here", "data": [{"substance": "Cimzia: Fab′ against TNFa conjugated with a 40 kDa branched polymer [reference compound]", "values": [{"measurement": "Human half life after subcutaneous injection", "setting": "human, subcutaneous", "result": 311, "unit": "h"}]}, {"substance": "Mircera: PEGylated form of recombinant human erythropietin [reference compound]", "values": [{"measurement": "in vivo half life after subcutaneous injection", "setting": "chronic renal disease patients, subcutaneous", "result": "approximately 140 hours"}]}, {"substance": "rhEPO: 30.4 kDa protein with 165 amino acids; native form of human erythropoietin with 3 N-linked chains", "values": [{"measurement": "mean terminal half life after intravenous injection", "setting": "human, intravenous", "result": 7, "unit": "h"}, {"measurement": "mean terminal half life after subcutaneous injection", "setting": "human, subcutaneous", "result": 16, "unit": "h"}]}]}
